{
  "source": "patent US8287851B2",
  "about": "“Use of interleukin 17E for the treatment of cancer” (Lorus Therapeutics Inc., priority 2005, dated 2012)",
  "molecules": {"B1": {"name": "murine IL-17E: Murine IL-17E from R&D Systems; predominant form starting at Val 17 of GenBank NP 542767 (protein)", "chain": "VSLRIQEGCSHLPSCCPSKEQEPPEEWLKWSSASVSPPEPLSHTHHAESCRASKDGPLNSRAISPWSYELDRDLNRVPQDLYHARCLCPHCVSLQTGSHMDPLGNSVPLYHNQTVFYRRPCHGEEGTHRRYCLERRLYRVSLACVCVRPRVMA"}, "B2": {"name": "human IL-17E: Recombinant human IL-17E from PeproTech; two 145 amino acid chains, predominant form starting at Tyr 33 of GenBank AAG40848 (protein, listed as Homo sapiens)", "chain": "YSHWPSCCPSKGQDTSEELLRWSTVPVPPLEPARPNRHPESCRASEDGPLNSRAISPWRYELDRDLNRLPQDLYHARCLCPHCVSLQTGSHMDPRGNSELLYHNQTVFYRRPCHGEKGTHKGYCLERRLYRVSLACVCVRPRVMG"}},
  "key": {"[1]": {"system": "IL-5", "experiment": "Serum IL-5 in tumour-engrafted mice (ELISA)", "format": "in vivo, CD1-nude mice", "procedure": "The expression of IL-5 in serum was examined in tumour-engrafted mice treated with IL-17E. CD1-nude mice were engrafted with either C8161 human melanoma cells or MiaPaCa2 pancreatic cancer cells and treated with either PBS or murine IL-17E as described previously. Serum samples were collected individually from each mouse at the endpoint of the experiment, and IL-5 levels were determined by ELISA assay (BD OptEIA; BD Biosciences), according to the manufacturer's instructions. Immunoassay plates were coated with anti-mouse IL-5 monoclonal antibody as a capture antibody and incubated with serial dilutions of mouse sera. Plates were washed three times with wash buffer and blocked for 1 hr at room temp. Plates were incubated with biotinylated anti-mouse IL-5 monoclonal antibody and avidin-horseradish peroxidase conjugate for 1 hour, followed by seven washes. Substrate solution was added for 30 minutes, followed by stop solution, prior to measurement of absorbance (450/570 nm). Statistical analysis was performed to compare IL-5 levels. P values <0.05 were considered to be significant."}, "[2]": {"system": "human melanoma C8161 xenograft", "experiment": "Antitumour activity in murine xenograft model of human melanoma C8161", "format": "in vivo, CD-1 athymic nude mice", "procedure": "Human melanoma cell line C8161 was grown in RPMI 1640 medium (Wisent Inc., St. Bruno, QC) with 10% fetal bovine serum, penicillin (100 U/ml), streptomycin ([…]) (Wisent Inc.) at 37° C. under 95% air and 5% CO2, and maintained with routine media changes. Adherent C8161 cells were passaged by trypsinization with 0.025% trypsin. CD-1 athymic nude mice and C57BL/6 (6-8 weeks old, 20-25 g, female) were purchased from Charles River (Montreal, QC).\nHuman tumour xenografts were established in mice. Briefly, human tumour cells were harvested at approximately 80% confluence in cell culture medium and resuspended in sterile PBS. Ten million tumour cells in 100 μl were subcutaneously implanted into the right flank of CD-1 athymic nude mice. When tumours reached a volume of 50-100 mm^3, mice were randomly separated into two groups of 10 animals and treated with BD-BRM until the endpoint of the experiment. Anti-tumour activity was evaluated and tumour volume was estimated by caliper measurements, using the formula: Length×Width×Height×/2. Tumour weight was determined from tumour tissue surgically excised from the animal on the last day of the experiment. The percentage of inhibition (%)=(mean tumour weight of control animals−mean tumour weight of drug-treated group)/mean tumour weight of controls×100. A p value of ≦0.05 was considered to be statistically significant.\nMice bearing human melanoma C8161 xenograft were treated intraperitoneally with BD-BRM or PBS for 4 weeks. Briefly, human melanoma C8161 cells were subcutaneously injected into the right flank of CD-1 nude mice as described above. The mice were then administered i.p. with 0.2 ml of PBS or BD-BRM daily when tumours reached a volume of 50-100 mm^3.\nRecombinant human IL-17E was obtained from PeproTech, Inc., and is present in the preparation as a 33.8 kDA disulphide linked homodimer of two 145 amino acid polypeptide chains. The predominant form of IL-17E in this preparation is the form starting at Tyr 33 of the human sequence provided by GenBank Accession No. AAG40848. Human melanoma C8161 cells (10^6 cells in 100 μl PBS) were subcutaneously implanted into the right flank of CD-1 athymic nude mice. When tumours reached a volume of 50-100 mm^3, mice were randomly separated into two groups of 10 animals and treated as follows:\nGroup I: 100 μl of PBS intraperitoneally (i.p.) per mouse every other day until the endpoint of the experiment; and\nGroup II: 0.04 mg/kg of recombinant human IL-17E intraperitoneally (i.p.) every other day until the endpoint of the experiment.\nThe size of the tumours was measured by caliper measurements throughout the experiment. Tumour volume was determined using the formula (Length×Width×Height/2). T-tests were performed to assess the statistical significance of differences in tumour sizes. A p value of ≦0.05 was considered to be statistically significant.\nThe effect of human IL-17E dosage on antitumour efficacy was examined using a murine xenograft model of human melanoma tumour growth. Human melanoma C8161 cells (10^6 cells in 100 μl PBS) were subcutaneously implanted into the right flank of CD-1 athymic nude mice. When tumours reached a volume of 50-100 mm^3, mice were randomly separated into four groups of 10 animals and treated as follows:\nGroup I: 100 μl of PBS subcutaneously (s.c.) per mouse every other day until the endpoint of the experiment; […]"}},
  "data": [
    {"molecule": "B1", "values": [
      {"measurement": "serum levels of IL-5 as compared to PBS", "setting": "[1]; mice engrafted with human melanoma C8161 cells", "value": "significantly higher"},
      {"measurement": "serum levels of IL-5 as compared to PBS", "setting": "[1]; mice engrafted with human pancreatic cancer MiaPaCa2 cells", "value": "significantly higher"},
      {"measurement": "antitumour efficacy, comparison of i.p. and i.v. routes of administration", "setting": "[2]; 0.04 mg/kg murine IL-17E every other day", "value": "approximately equivalent antitumour efficacy"},
      {"measurement": "tumour growth (tumour weight) vs PBS", "setting": "[2]; 0.04 mg/kg murine IL-17E intraperitoneally every other day", "value": "inhibit tumour growth"},
      {"measurement": "tumour growth (tumour weight) vs PBS", "setting": "[2]; 0.04 mg/kg murine IL-17E intravenously every other day", "value": "inhibit tumour growth"}
    ]},
    {"molecule": "B2", "values": [
      {"measurement": "tumour growth (tumour volume) as compared to PBS", "setting": "[2]; 0.04 mg/kg recombinant human IL-17E i.p. every other day", "value": "significantly inhibit tumour growth"},
      {"measurement": "antitumour effect with increasing doses", "setting": "[2]; 0.0018, 0.016, 0.144 mg/kg s.c. every other day", "value": "dose-response effect"}
    ]}
  ]
}
